Literature values in article PMC11111649.

Biological target: Angiotensin II (Homo sapiens) (UniProt P01019)
Chain of UniProt P01019 (P01019 whole entry, looked up): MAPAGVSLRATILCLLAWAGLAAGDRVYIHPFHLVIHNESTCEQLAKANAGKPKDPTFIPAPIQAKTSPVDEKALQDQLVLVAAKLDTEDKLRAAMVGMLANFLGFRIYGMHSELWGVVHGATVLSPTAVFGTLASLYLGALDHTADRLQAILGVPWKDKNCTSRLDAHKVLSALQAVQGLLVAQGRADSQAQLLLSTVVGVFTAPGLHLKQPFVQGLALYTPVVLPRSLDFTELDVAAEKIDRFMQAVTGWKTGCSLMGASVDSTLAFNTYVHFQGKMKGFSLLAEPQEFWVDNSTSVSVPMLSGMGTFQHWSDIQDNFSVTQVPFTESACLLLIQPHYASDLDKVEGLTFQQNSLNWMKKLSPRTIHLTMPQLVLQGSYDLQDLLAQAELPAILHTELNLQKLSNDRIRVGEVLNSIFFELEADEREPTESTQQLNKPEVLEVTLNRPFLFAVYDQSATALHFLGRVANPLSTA

For AT1R (from UniProt P30556), which Kd is on record?
Its Kd is 1 nM.
